Assay [1] concerns the target FcγR3A (CD16aV158) (human). Description: FRET or BRET; time-resolved FRET (Cisbio); FcγRs expressed on HEK293 cells (Tb donor cells); IgG-d2 acceptor conjugate displaced by the test antibodies; EC50 by the manufacturer's protocol. Background: In BRET a luciferase serves as donor, and the signal depends on an acceptor being close.
In assay [2] the target is FcγR2A (CD32aR131) (human). Described as above.
The target of assay [3] is SIRPα variant 5 Fc (haplotype v5 EPN) (human) (UniProt P78324). In words: BLI; Octet, under affinity conditions; SIRPα variants 1-6 Fc captured on anti-human capture tips, dipped into 50 nmol/L BMS-986351-Fab; association 180 s, dissociation 180 s; 2 x 10^-4 is the limit of koff that can be confidently assigned. A general note: In BLI a coated tip is dipped into the sample, and binding shifts an interference pattern.
Sequence of SIRPα variant 5 Fc (haplotype v5 EPN) (human) (P78324 other isoform, or with tags, fused parts or gaps, change not shown): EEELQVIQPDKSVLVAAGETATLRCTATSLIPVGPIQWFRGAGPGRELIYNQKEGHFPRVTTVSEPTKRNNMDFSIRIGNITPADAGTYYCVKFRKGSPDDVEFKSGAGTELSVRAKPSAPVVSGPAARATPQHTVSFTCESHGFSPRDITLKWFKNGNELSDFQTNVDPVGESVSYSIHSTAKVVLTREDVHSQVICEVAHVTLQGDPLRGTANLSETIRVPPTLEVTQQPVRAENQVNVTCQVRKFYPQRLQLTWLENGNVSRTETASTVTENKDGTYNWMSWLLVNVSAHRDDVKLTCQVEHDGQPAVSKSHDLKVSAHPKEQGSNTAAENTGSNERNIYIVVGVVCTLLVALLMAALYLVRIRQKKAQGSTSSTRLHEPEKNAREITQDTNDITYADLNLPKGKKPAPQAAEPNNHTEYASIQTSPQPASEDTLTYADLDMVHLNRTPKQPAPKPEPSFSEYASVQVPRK

Assay [4] concerns the target SIRPα variant 4 Fc (haplotype v4 ESK) (human) (UniProt P78324). The assay is described as above.
Assay [5] has as its target SIRPα variant 6 Fc (haplotype v6 ELE) (human) (UniProt P78324). The description is as above.
Assay [6] deals with SIRPα variant 3 Fc (haplotype v3 DLE) (human) (UniProt P78324). The assay is described as above.
Sequence of SIRPα variant 3 Fc (haplotype v3 DLE) (human) (P78324 other isoform, or with tags, fused parts or gaps, change not shown): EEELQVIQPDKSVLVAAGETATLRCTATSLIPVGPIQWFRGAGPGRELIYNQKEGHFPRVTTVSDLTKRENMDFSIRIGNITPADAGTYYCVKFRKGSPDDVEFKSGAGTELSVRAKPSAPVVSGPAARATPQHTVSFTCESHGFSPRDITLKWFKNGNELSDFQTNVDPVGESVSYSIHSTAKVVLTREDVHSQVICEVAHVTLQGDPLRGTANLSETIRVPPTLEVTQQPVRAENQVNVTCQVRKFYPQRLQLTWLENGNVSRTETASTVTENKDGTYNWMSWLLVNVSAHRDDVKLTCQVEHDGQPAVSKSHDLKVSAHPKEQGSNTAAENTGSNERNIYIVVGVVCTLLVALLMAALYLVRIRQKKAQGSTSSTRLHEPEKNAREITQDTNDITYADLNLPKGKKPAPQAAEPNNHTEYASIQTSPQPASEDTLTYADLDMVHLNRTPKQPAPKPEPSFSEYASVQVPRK

Sequence of SIRPα variant 4 Fc (haplotype v4 ESK) (human) (P78324 other isoform, or with tags, fused parts or gaps, change not shown): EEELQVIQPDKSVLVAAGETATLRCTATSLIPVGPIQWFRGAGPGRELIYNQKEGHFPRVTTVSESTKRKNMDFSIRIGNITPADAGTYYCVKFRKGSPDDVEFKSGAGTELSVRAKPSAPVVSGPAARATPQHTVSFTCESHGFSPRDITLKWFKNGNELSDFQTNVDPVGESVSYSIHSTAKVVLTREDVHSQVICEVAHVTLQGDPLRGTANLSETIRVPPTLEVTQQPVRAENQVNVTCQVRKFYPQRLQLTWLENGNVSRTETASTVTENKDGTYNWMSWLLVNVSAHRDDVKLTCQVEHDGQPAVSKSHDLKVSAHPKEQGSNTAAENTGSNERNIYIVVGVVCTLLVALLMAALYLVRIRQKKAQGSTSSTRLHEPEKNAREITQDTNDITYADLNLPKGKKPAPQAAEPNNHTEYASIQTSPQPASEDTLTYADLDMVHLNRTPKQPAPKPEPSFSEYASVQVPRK
Sequence of SIRPα variant 6 Fc (haplotype v6 ELE) (human) (P78324 other isoform, or with tags, fused parts or gaps, change not shown): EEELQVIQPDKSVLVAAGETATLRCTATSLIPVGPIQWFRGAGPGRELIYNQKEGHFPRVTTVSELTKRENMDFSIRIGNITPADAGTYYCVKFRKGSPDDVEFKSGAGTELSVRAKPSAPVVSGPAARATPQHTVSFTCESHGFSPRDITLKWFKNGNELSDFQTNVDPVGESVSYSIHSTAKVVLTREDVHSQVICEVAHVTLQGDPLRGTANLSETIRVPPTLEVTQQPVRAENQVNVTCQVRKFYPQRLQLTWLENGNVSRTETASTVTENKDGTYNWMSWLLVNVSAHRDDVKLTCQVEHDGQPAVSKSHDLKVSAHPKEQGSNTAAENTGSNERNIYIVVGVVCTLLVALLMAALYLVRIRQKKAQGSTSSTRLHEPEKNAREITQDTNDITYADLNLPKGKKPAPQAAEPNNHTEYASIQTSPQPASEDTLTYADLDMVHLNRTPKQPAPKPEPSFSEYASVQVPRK
Sequence of FcγR3A (CD16aV158) (human) (P08637 17-254 F176V): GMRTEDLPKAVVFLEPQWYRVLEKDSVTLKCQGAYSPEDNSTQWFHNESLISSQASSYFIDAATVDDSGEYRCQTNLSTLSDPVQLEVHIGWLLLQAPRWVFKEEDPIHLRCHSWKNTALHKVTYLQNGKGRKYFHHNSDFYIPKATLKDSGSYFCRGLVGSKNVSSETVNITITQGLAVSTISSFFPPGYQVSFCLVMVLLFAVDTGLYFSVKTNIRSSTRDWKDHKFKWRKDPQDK
Sequence of FcγR2A (CD32aR131) (human) (P12318 34-317 H167R): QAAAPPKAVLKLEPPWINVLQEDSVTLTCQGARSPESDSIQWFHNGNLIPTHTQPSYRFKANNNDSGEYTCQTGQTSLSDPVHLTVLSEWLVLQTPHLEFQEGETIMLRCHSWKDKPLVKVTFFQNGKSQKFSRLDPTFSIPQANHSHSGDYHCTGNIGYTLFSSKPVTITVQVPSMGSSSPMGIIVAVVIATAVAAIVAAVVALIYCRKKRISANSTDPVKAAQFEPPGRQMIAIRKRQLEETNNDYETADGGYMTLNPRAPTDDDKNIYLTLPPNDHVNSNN

B1: BMS-986351 (antibody, V domains shown)
VH: QVQLVQSGAEVKKPGASVKVSCKASGYTFRGYGISWVRQAPGQGLEWMGWISAYGGETNYAQKLQGRVTMTTDTSTSTAYMELRSLRSDDTAVYYCAREAGSSWYDFDLWGRGTLVTVSS
VL: DIQMTQSPSSVSASVGDRVTITCRASQGISSWLAWYQQKPGKAPKLLIYAASNLQSGVPSRFSGSGSGTDFTLTISSLQPEDFATYYCQQGASFPITFGGGTKVEIK
As a reminder, the EC50 is the concentration needed to bring the measured effect to its halfway point. A high value points to lower potency in that assay. With B1, the half-maximal effective concentration (EC50) in assay [1] turned out to be 795 nM; in assay [2], 188 nM.

B2: BMS-986351-Fab (Fab, V domains shown)
VH: QVQLVQSGAEVKKPGASVKVSCKASGYTFRGYGISWVRQAPGQGLEWMGWISAYGGETNYAQKLQGRVTMTTDTSTSTAYMELRSLRSDDTAVYYCAREAGSSWYDFDLWGRGTLVTVSS
VL: DIQMTQSPSSVSASVGDRVTITCRASQGISSWLAWYQQKPGKAPKLLIYAASNLQSGVPSRFSGSGSGTDFTLTISSLQPEDFATYYCQQGASFPITFGGGTKVEIK
The Kd is the concentration at which binding is half-saturated. Read a high Kd as weaker binding. The koff is a measure of how fast the partners let go of each other. Read a high koff as fast dissociation. As usually defined, the kon is a measure of how fast the partners come together. A lower kon goes with slower complex formation. Turning to B2, the Kd in assay [3] was 0.611 nM; in assay [4], 1.52 nM; in assay [5] it was 0.183 nM; in assay [6], less than 0.145 nM. For the same molecule, the koff was 0.00106 s⁻¹ in assay [3], 0.00228 s⁻¹ in assay [4], 0.000356 s⁻¹ in assay [5] and less than 0.0002 s⁻¹ in assay [6]. Moreover, the kon worked out at 1.73e+06 M⁻¹ s⁻¹ in assay [3], 1.5e+06 M⁻¹ s⁻¹ in assay [4], 1.94e+06 M⁻¹ s⁻¹ in assay [5] and 1.38e+06 M⁻¹ s⁻¹ in assay [6].

These data come from article PMC10883291.
